Substitutions are numbered along the chain they refer to. Names and notes keep the numbering of the source.
T1: EsCas13d, nuclease-dead (Eubacterium siraeum, UniProt B0MS50, R295A;H300A;R849A;H854A)
T1 sequence: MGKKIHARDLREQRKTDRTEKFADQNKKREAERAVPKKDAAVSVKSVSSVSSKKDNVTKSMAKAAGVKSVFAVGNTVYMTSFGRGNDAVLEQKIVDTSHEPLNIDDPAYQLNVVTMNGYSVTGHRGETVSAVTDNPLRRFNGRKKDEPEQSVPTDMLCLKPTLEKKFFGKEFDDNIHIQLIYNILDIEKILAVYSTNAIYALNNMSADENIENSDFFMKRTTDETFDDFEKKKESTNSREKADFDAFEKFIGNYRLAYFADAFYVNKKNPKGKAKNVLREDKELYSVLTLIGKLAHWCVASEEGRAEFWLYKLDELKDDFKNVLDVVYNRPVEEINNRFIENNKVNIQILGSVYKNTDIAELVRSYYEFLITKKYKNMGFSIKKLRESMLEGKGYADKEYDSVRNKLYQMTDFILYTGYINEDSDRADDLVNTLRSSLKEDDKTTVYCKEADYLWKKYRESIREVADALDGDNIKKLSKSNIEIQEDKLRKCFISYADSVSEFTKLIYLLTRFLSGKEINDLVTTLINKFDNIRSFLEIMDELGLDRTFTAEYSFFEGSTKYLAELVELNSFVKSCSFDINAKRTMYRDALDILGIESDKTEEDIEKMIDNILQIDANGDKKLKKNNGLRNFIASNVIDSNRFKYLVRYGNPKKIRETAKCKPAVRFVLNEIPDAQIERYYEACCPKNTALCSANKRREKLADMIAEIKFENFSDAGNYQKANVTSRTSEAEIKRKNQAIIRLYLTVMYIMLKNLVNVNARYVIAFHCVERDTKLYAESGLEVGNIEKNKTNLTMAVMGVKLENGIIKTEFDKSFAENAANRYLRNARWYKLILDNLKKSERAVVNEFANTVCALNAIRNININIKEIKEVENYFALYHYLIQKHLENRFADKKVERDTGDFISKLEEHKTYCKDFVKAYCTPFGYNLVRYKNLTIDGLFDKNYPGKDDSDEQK

B1: target 2 MT 5'PFS ACU 3'PFS ACU (mixed)
RNA 1: CACCCGUGCAAAAUUGCAGGGGUCUAAAACCUUCUCCAAAUUGUUUCAUCCU
RNA 2: GGGAAUGGAUCCACAUCUACGAAUUCACUAGGAUGAAACAAUUUGGAGAAGACUAGAUCGGAAGAGCACACGU
B2: target 2 MT 5'PFS AAU 3'PFS ACA (mixed)
RNA 1: B1 RNA 1
RNA 2: B1 RNA 2 with C28A, U54A
B3: target 2 MT 5'PFS GGG 3'PFS UCA (mixed)
RNA 1: B1 RNA 1
RNA 2: B1 RNA 2 with A27G, C28G, U29G, A52U, U54A
B4: target 2 MT 5'PFS UCG 3'PFS CCG (mixed)
RNA 1: B1 RNA 1
RNA 2: B1 RNA 2 with A27U, U29G, A52C, U54G
B5: target 2 MT 5'PFS GUU 3'PFS CCG (mixed)
RNA 1: B1 RNA 1
RNA 2: B1 RNA 2 with A27G, C28U, A52C, U54G
B6: target 2 MT 5'PFS GAA 3'PFS AGG (mixed)
RNA 1: B1 RNA 1
RNA 2: B1 RNA 2 with A27G, C28A, U29A, C53G, U54G
B7: target 2 MT 5'PFS AUG 3'PFS CAA (mixed)
RNA 1: B1 RNA 1
RNA 2: B1 RNA 2 with C28U, U29G, A52C, C53A, U54A
B8: target 2 MT 5'PFS GAA 3'PFS AGA (mixed)
RNA 1: B1 RNA 1
RNA 2: B1 RNA 2 with A27G, C28A, U29A, C53G, U54A
B9: target 2 MT 5'PFS AGC 3'PFS CCA (mixed)
RNA 1: B1 RNA 1
RNA 2: B1 RNA 2 with C28G, U29C, A52C, U54A
B10: target 2 MT 5'PFS AAA 3'PFS UUU (mixed)
RNA 1: B1 RNA 1
RNA 2: B1 RNA 2 with C28A, U29A, A52U, C53U
B11: target 2 MT 5'PFS AGC 3'PFS CCG (mixed)
RNA 1: B1 RNA 1
RNA 2: B1 RNA 2 with C28G, U29C, A52C, U54G
B12: target 2 MT 5'PFS AUU 3'PFS UCG (mixed)
RNA 1: B1 RNA 1
RNA 2: B1 RNA 2 with C28U, A52U, U54G
B13: target 2 MT 5'PFS AAU 3'PFS CAU (mixed)
RNA 1: B1 RNA 1
RNA 2: B1 RNA 2 with C28A, A52C, C53A
B14: target 2 MT 5'PFS AAU 3'PFS CAC (mixed)
RNA 1: B1 RNA 1
RNA 2: B1 RNA 2 with C28A, A52C, C53A, U54C
B15: target 2 MT 5'PFS GGG 3'PFS UCC (mixed)
RNA 1: B1 RNA 1
RNA 2: B1 RNA 2 with A27G, C28G, U29G, A52U, U54C
B16: target 2 MT 5'PFS UCA 3'PFS CUU (mixed)
RNA 1: B1 RNA 1
RNA 2: B1 RNA 2 with A27U, U29A, A52C, C53U
B17: target 2 MT 5'PFS GAA 3'PFS CAC (mixed)
RNA 1: B1 RNA 1
RNA 2: B1 RNA 2 with A27G, C28A, U29A, A52C, C53A, U54C
B18: target 2 MT 5'PFS AUU 3'PFS CGU (mixed)
RNA 1: B1 RNA 1
RNA 2: B1 RNA 2 with C28U, A52C, C53G
B19: target 2 MT 5'PFS AUU 3'PFS UCA (mixed)
RNA 1: B1 RNA 1
RNA 2: B1 RNA 2 with C28U, A52U, U54A
B20: target 2 MT 5'PFS GAA 3'PFS CAA (mixed)
RNA 1: B1 RNA 1
RNA 2: B1 RNA 2 with A27G, C28A, U29A, A52C, C53A, U54A
B21: target 2 MT 5'PFS AAA 3'PFS UUA (mixed)
RNA 1: B1 RNA 1
RNA 2: B1 RNA 2 with C28A, U29A, A52U, C53U, U54A
B22: target 2 MT 5'PFS GAA 3'PFS CAU (mixed)
RNA 1: B1 RNA 1
RNA 2: B1 RNA 2 with A27G, C28A, U29A, A52C, C53A
B23: target 2 MT 5'PFS CCG 3'PFS CCU (mixed)
RNA 1: B1 RNA 1
RNA 2: B1 RNA 2 with A27C, U29G, A52C
B24: target 2 MT 5'PFS GGG 3'PFS UCG (mixed)
RNA 1: B1 RNA 1
RNA 2: B1 RNA 2 with A27G, C28G, U29G, A52U, U54G
B25: target 2 MT 5'PFS GAA 3'PFS AGC (mixed)
RNA 1: B1 RNA 1
RNA 2: B1 RNA 2 with A27G, C28A, U29A, C53G, U54C
B26: target 2 MT 5'PFS GUU 3'PFS CCA (mixed)
RNA 1: B1 RNA 1
RNA 2: B1 RNA 2 with A27G, C28U, A52C, U54A
B27: target 2 MT 5'PFS GGG 3'PFS UCU (mixed)
RNA 1: B1 RNA 1
RNA 2: B1 RNA 2 with A27G, C28G, U29G, A52U
B28: target 2 MT 5'PFS AAU 3'PFS CAA (mixed)
RNA 1: B1 RNA 1
RNA 2: B1 RNA 2 with C28A, A52C, C53A, U54A
B29: target 2 MT 5'PFS UAG 3'PFS CCC (mixed)
RNA 1: B1 RNA 1
RNA 2: B1 RNA 2 with A27U, C28A, U29G, A52C, U54C
B30: target 2 MT 5'PFS CAU 3'PFS AUU (mixed)
RNA 1: B1 RNA 1
RNA 2: B1 RNA 2 with A27C, C28A, C53U
B31: target 2 MT 5'PFS GCG 3'PFS CGU (mixed)
RNA 1: B1 RNA 1
RNA 2: B1 RNA 2 with A27G, U29G, A52C, C53G
B32: target 2 MT 5'PFS CCG 3'PFS CCC (mixed)
RNA 1: B1 RNA 1
RNA 2: B1 RNA 2 with A27C, U29G, A52C, U54C
B33: target 2 MT 5'PFS CAG 3'PFS ACA (mixed)
RNA 1: B1 RNA 1
RNA 2: B1 RNA 2 with A27C, C28A, U29G, U54A
B34: target 2 MT 5'PFS AUG 3'PFS CAU (mixed)
RNA 1: B1 RNA 1
RNA 2: B1 RNA 2 with C28U, U29G, A52C, C53A
B35: target 1 insC 3' of 8,insG 3' of 8 (mixed)
RNA 1: CACCCGUGCAAAAAUGCAGGGGUCUAAAACUGAGCGGAUAACCUCUCUAUGG
RNA 2: GGGAAUGGAUCCACAUCUACGAAUUCGUACCAUAGAGAGGUUAUCGCCGCUCACCGAGAUCGGAAGAGCACACGU
B36: target 1 insU 3' of 2,insA 3' of 2 (mixed)
RNA 1: B35 RNA 1
RNA 2: B35 RNA 2 with G46C, C47G, G49U, C52A
B37: target 1 insC 3' of 17,insC 3' of 15 (mixed)
RNA 1: B35 RNA 1
RNA 2: GGGAAUGGAUCCACAUCUACGAAUUCGUACCAUAGCAGCAGGUUAUCCGCUCACCGAGAUCGGAAGAGCACACGU
B38: target 1 A1G,C6G (mixed)
RNA 1: B35 RNA 1
RNA 2: GGGAAUGGAUCCACAUCUACGAAUUCGUACCAUAGAGAGGUUAUCGGCUCGCCGAGAUCGGAAGAGCACACGU

target: T1, EsCas13d, nuclease-dead; experiment: crRNA (strand 1, pre-loaded); Mg2+; 40 mM Tris-HCl pH 7.5, 150 mM NaCl, 6 mM MgCl2, 1 mM DTT, 0.1% Tween-20, 0.2 mg/ml BSA; 25 C; 10 min per concentration, then washed; settings: tags: His6-TwinStrep-SUMO cleaved; N-terminal SNAP kept (SNAP-Surface 488); label: 3' end held by stalled T7 RNA polymerase

Row | Binder | Kd [nM]
1 | B1 | 7.3 ± 1.3
2 | B2 | 7.5 ± 1.3
3 | B3 | 11.3 ± 1.5
4 | B4 | 90 ± 40
5 | B5 | 14.3 ± 1.2
6 | B6 | 6.9 ± 0.7
7 | B7 | 9 ± 1.4
8 | B8 | 5.4 ± 0.9
9 | B9 | 78 ± 32
10 | B10 | 23 ± 10
11 | B11 | 9.3 ± 1
12 | B12 | 7.8 ± 0.7
13 | B13 | 3 ± 0.6
14 | B14 | 5.2 ± 1
15 | B15 | 52 ± 14
16 | B16 | 5 ± 0.9
17 | B17 | 7 ± 1.5
18 | B18 | 6.9 ± 0.9
19 | B19 | 7 ± 0.8

Row | Binder | Kd [nM]
20 | B20 | 4.9 ± 0.7
21 | B21 | 5.6 ± 1.5
22 | B22 | 8.6 ± 1.7
23 | B23 | 8.4 ± 1.6
24 | B24 | 11.5 ± 0.8
25 | B25 | 6.3 ± 1.1
26 | B26 | ~90
27 | B27 | 12.1 ± 0.8
28 | B28 | 4.3 ± 0.7
29 | B29 | 24 ± 9
30 | B30 | 4.1 ± 0.6
31 | B31 | 14.4 ± 3
32 | B32 | 3.1 ± 0.5
33 | B33 | 5.3 ± 2.1
34 | B34 | 7.6 ± 0.8
35 | B35 | 10.6 ± 0.5
36 | B36 | 10.9 ± 0.5
37 | B37 | 38 ± 6
38 | B38 | 7.3 ± 0.4

Reference: article PMC10786891, “Massively parallel profiling of RNA-targeting CRISPR-Cas13d”
